Reference: paper PMC2670943 (Journal of molecular biology, 2009)
Read-outs that look alike come from different tables or passages of the source. One block for each binder: values may come before it.

What was measured:
crystal structure [1] = biological target: the molecule itself; test: crystal structure
[2] = biological target: T1, human GRASP55 full length (residues 1–452) (human, UniProt Q9H8Y8-1 1-452); test: SPR
[3] = biological target: T2, human GRASP55 N-terminal domain (residues 1–263) (human, UniProt Q9H8Y8-1 1-263); test: SPR
crystal structure [4] = biological target: the molecule itself; test: crystal structure; remark: listed apart in the source
[5] = biological target: T1, human GRASP55 full length (residues …); test: AUC
[6] = biological target: T2, human GRASP55 N-terminal domain …; test: AUC
crystal structure [7] = biological target: the molecule itself; test: crystal structure; remark: listed apart in the source

B1: human KCTD5 residues 34–234, seleno-methionine labeled (domain or fragment, UniProt Q9NXV2 34-234, looked up)
chain: ALAQRPGSVSKWVRLNVGGTYFLTTRQTLCRDPKSFLYRLCQADPDLDSDKDETGAYLIDRDPTYFGPVLNYLRHGKLVINKDLAEEGVLEEAEFYNITSLIKLVKDKIRERDSKTSQVPVKHVYRVLQCQEEELTQMVSTMSDGWKFEQLVSIGSSYNYGNEDQAEFLCVVSKELHNTPYGTASEPSEKAKILQERGSRM
modifications: seleno-methionine labeled (two seleno-methionine residues, M171 and M175, in the C-terminal domain)
stoichiometry N (crystal structure [1]): 5 subunits

koff [2]: 0.00103 s⁻¹
kon [2]: 870 M⁻¹ s⁻¹
koff [3]: 0.00223 s⁻¹
kon [3]: 2590 M⁻¹ s⁻¹
Kd [5]: 1410 ± 260 nM
Kd [6]: 8.26 ± 1.6 µM
B2: human KCTD5 residues 34–234 ("full length" construct for structural and binding analysis), native (domain or fragment, UniProt Q9NXV2 34-234, looked up)
chain: ALAQRPGSVSKWVRLNVGGTYFLTTRQTLCRDPKSFLYRLCQADPDLDSDKDETGAYLIDRDPTYFGPVLNYLRHGKLVINKDLAEEGVLEEAEFYNITSLIKLVKDKIRERDSKTSQVPVKHVYRVLQCQEEELTQMVSTMSDGWKFEQLVSIGSSYNYGNEDQAEFLCVVSKELHNTPYGTASEPSEKAKILQERGSRM
stoichiometry N (crystal structure [4]): 5 subunits

B3: human KCTD5 N-module (residues 40–145) (domain or fragment)
chain: not shown
stoichiometry N (crystal structure [7]): 5 subunits
